The data set can be described thus: yeast display, Sf9 membrane polyspecificity reagent, FACS + sequencing; frameworks hold sequencing errors. In a few lines: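 Galactose induction of a Saccharomyces cerevisiae BJ5465 synthetic nanobody display library ran 36–48 hours. The cells were then stained for 1 hour at 4 °C with 10% biotinylated, detergent-solubilized Sf9 membrane reagent, pulled down on streptavidin microbeads and FACS-sorted into low and high (top ~1%) gates on expression and reagent-binding fluorescence. Labels for polyreactivity follow the gate of origin.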
As for “QVQLVESGGGLVQAGGSLRLSCAASGRTFYFYAMGWYRQAPGKERELVAAITVRGGSTYYADSVKGRFTISRYNAKNTVYLQMNSLKPEDTAVYYCAADPYPYYGAYDYWGQGTQVTVSS”, the “polyreactivity (PSR sort gate)” value is on record as “high polyreactivity”.
For “QVQLVESGGGLVQAGGSLRLSCAASGYIFFTNAMGWYRQAPGKERELVAAISTIDGSTYYADSVKGRFTISRDNAKNTVYLQMNSLKPEDTAVYYCATDTPFISSLAYDYWGQGTQVTVSS”, the “polyreactivity (PSR sort gate)” value is given as “low polyreactivity”.
The value for “QVQLVESGGGLVQAGGSLRLSCAASGITFYPYAMGWYRQAPGKERELVAAITLSTGTTYYADSVKGRFTISRDNAKNTVYLQMNSLKPEDTAVYYCAVEGYWYAGWYAMDYWGQGTQVTVSS” was “low polyreactivity”.
Turning to “QVQLEESGGGLVQAGGSLRLSCAASGSTIPPYAMGWYRQAPRKERELVAAITSGGSTYYADSVKGRFTISRDNAKNTVYLQMNSLKPEDTAVYYCAASWDPWEYDYWGQGTQVTVSS”, the “polyreactivity (PSR sort gate)” value is “low polyreactivity”.
Consider “QVQLVESGGALVQAGGSLRLSCAASGSIFGSYALGWYRQAPGKERELVASITRVDSTNYADSVKGRFTISRDNAKNTVYLQMNSLKPEDTAVYYCAADITSPAYATYDYWGQGTQVTVSS”, for which the “polyreactivity (PSR sort gate)” value was “low polyreactivity”.
For the sequence “QVQLVESGGGLVQAGGSLRLSCAASGSTFPSNAMGWYRQAPGKERELVAAIRGRGGSTYYADSVKGRFTISRDNAKNTVYLQMNSLKPEDTAVYYCAKKVRSYVRWEYDYWGQGTQVTVSS”, the “polyreactivity (PSR sort gate)” value was “low polyreactivity”.
As to “QVQLVESGGGLVQAGGSLRLSCAASGRIFFNAMGWYRQAPGKEREFVAAIRTSGGTTYYADSVKGRFTISRDNAKNTVYLQMNSLKPEDTAVYYCAAWRWYYPVRNRAQYVRGDYWGQGTQVTVSS”, the “polyreactivity (PSR sort gate)” value is given as “high polyreactivity”.
The result for “QVQLVESGGGLVQAGGSLRLSCAASGITLPYYAMGWYRQAPGKERELVAGISSRGGSTYYADSVKGRFTISRDNAKNTVYLQMNSLKPEDTAVYYCAAKVASTRLGPAYGYWGQGTQVTVSS” reads “high polyreactivity”; that for “QVQLVDSGGGSVQAGGSLRLSCAASGSTFYENAMGWYRQAPGKERELVAAITWSGGRTYYADSVKGRFTISRDNAKNTVYLQMYSLKPEDTAVYYCNARERSRKFYYWGQGTQVTVSS”, “high polyreactivity”.
On to “QEQLQESGGCLVQAGGSLRLSCAASGSIFYVYGMGWFRQPPGKELELVAGINDGTNTNYADSVRGRFTISRDNAKNTVLLQMNSLKPEDTAVYYCAADGNCYQAHEYWGVGTQVTVSS”, for which the “polyreactivity (PSR sort gate)” value was “high polyreactivity”.
The value for “QVQLIESGGGIVQAGGSLRLSSAASGIIFDWYTMGWYRQATGKERELVAAISWRGGRTYYADSVKGRFTISRDNAKNTVYLQMNSLKAVDTGVYYCAAEAPVQPFYVFNSGIYDLDYWGQGTHVTVSS” was “low polyreactivity”; that for “QVQIVESGGGLVQAGGSLRLSCAASGIIFYYYAMGWYRPAPGKERELVAGISYSGGSTYADSVKGLFTISRDNAKNTVYLQMNSLKPEDTAVYDCAADYDYGGHWYDYWGQGTQVTVSS” was “low polyreactivity”.
The value for “QVQLVESGGGLVQAGGSLRLSCAASGRIFYYNAMGWYRQAPGKERELVAAITYIGGNTHYADSVKGRFTISRDNAKNTVYFQMNSLKPEDTAVYYCARGTVLGFYYEYGYWGQGTQVTVSS” was “low polyreactivity”; that for “QVQLVESGGGLLQAGGSLRLSCADSGSILYTNAMGWYRQAPGKERELVAASTTSGASTIYADSVKGRFTISRENAKNTVYLQLNSLKPEDTAVYYCAAPSRYRYYLGNYWGQGTQVTVSS” was “high polyreactivity”; that for “QVQLVESGGGIVQAGGSLRLSCTASGFTFVYYAMGWYRQAPGKERELVASISRSGGSTYYADSVKGRFTISRDNAKNTVYLQMNSLKPEDTGVYYCNARYGRTALLDYWGQGTQVTVSS” was “high polyreactivity”.
For the sequence “QVQLVESCGGLVQAGGSLRLSCAASGRTFPAYAMGWSRQAPGKERELVAAISSSGSRTYYADSVKGRFTISRDNAKNTVYLQMNSLKQEDTAVYYCAARGGRRQKVNRDDYWGQGTQVTVSS”, the “polyreactivity (PSR sort gate)” value is listed as “high polyreactivity”.
“QVQLVESGGGLVQAGGSLRLSCAASGSTFGTYTMGWYRPAPGKERELVAAISNRGGTYYADSVKGRFTISRDNAKNTVYLQMNSMKPEDTAVYYCAVARRWGYDYWGQGTQVTVSS”: the “polyreactivity (PSR sort gate)” value is reported as “high polyreactivity”.
The value for “QVQLVESGGGLVQAGGSLRLSCAASGLTFANYVMGWYRQAPGKEREMVAAISRSGGSTYYADSVKGRFTISRDNAKYTVYLQMNSLKPEDTAVYYCAAAAWDPKGSRYDYWGQGTQVTVSS” was “low polyreactivity”; that for “QVQLVESGGGLVQAGGSLRLSCAASGSIFRFKAMGWYRQAPGKERELVAAISWSGGRTYYADSVKGRFTISRDNAKNTVYLQMNSLKPEDTAVYYCAARRSGLKVSPNFGYWGQGTQVTVSS” was “high polyreactivity”; that for “QVQLVESGGGLVQAGGSLRLSCAASGRIFHFNAIGWYRQAPGKERELFARIDTRGDSTYYADSVKGRFTISRDNAKNTVYLQMNSLKPEDTAVYYCAARGSRDGPYSGYGYWGQGTQVTVSS” was “low polyreactivity”.
The value for “QVQLVESGGGLVQAGGTLRLSCAASGYIFFPYAMGWYRQAPGKERELVAAISGSGTSTYYADSVKGRFTISRDNAKNTVYLQMNSLKPEDTAVYYCAAKYGQYDYDYWGQGTQVTVSS” was “low polyreactivity”; that for “QVQLVESGGGLVQAGGSLRLSCAASGHIFPTNAMGWYRQAPGKERELVAVISESVGSTYYADSVKGRFTISRDNAKNTVYLQMNSLKPEDTAVYYCATQSRYPSLDADYDYWGQGTQVTVSS” was “low polyreactivity”; that for “QVQLVESGGGLVQAGGSLRLSCAASGRIFHYNAMGWYRQAPGKERELVAAITRRGTSTYYADSVKGRFTISRDNAKNTVYLQMNSLKPEDTAVYYCATDYGFKDSVVDFDYWGQGTQVTVSS” was “low polyreactivity”.
The result for “QVHLYESGGGLVQLGGSLRLSCAASGTIFDYYTMGWYSQAPGKEREFVAAIAYGTNTYYADSVKGRFSISRDNAKHTVFLLLYSLKPEDTAVYYCATVGPRGLYYYWGQGTQVTVSS” reads “high polyreactivity”; that for “QVQHVESGGGLFQAGGSLRLSCAASGITFEYYAMGWYRQAPGKERELVAAISGDGSTYYADSVKGRFTISRDNAKNTVYLQMNSLKPEDTAVYYCAAVYYRGFLYYRYYYWGQGTQVTVSS”, “high polyreactivity”; that for “QVQLVESGGGLVQAGGSLRLSCAASGSTLVLNAMGWYRPATGKERELVAAITISGDTTYYADSVKGRFTISRDNAKNTVYLQMNCLKPEDTAVYYCAAVVSTVDCMEYWGQGTQVTVSS”, “low polyreactivity”.
For “QVQLVESGGCLVQAGGSLRFSCAASGIIFYGYAMGWYRQAPGKERELVAAISERGGSTYYADSVKGRFTISRDNAKNTVYLQMNSLKPEDTAVYYCAVDYYYLMYWGQGTQVTVSS”, the “polyreactivity (PSR sort gate)” value is reported as “low polyreactivity”.
For the sequence “QVQLVESGGGLVQAGGSLRLSCAASGRTFYAYAMGWYRQAPGKERELVAAITSGASTYYADSVKGRFTISRDNAKNTVYLQMNRLKPEDTAVYYCAKRVRYYKPGYDYWGQGTQVTVSS”, the “polyreactivity (PSR sort gate)” value is recorded as “low polyreactivity”.
The value for “QVQLVESGGGLVQAGGSLRLSCAASGSIFVTYALGWYRQAPGKERELVAAINSGGRTNYADSVKGRFTISRDNAKNTVYLQMNSLKPEDTAVYYCAATGRYFYPYYRYDYWGQGTQVTVSS” was “low polyreactivity”.
For “QVQLVESGGGLVQAGGSLRLSCAASGNTFWYYAMGWYRQAPGKERELVAAISWDGGITYYADSVKGRFTISRDNAKNTVYLQMNSLKPEDTAVYYCAAETNPKYRYTLDKYEYWGQGTQVTVSS”, the “polyreactivity (PSR sort gate)” value is recorded as “high polyreactivity”.
On to “QVQLVESGGGLVQAGGSLRLSCAASGSTFFRYAMGWYRQAPGKERELVAAISYSGDSTYYADSVKGRFTISRDNAKNTVDLQMNSLKPEDTAVYYCNAVYFRYRYNYWGQGTQVTVSS”, for which the “polyreactivity (PSR sort gate)” value is “high polyreactivity”.
“QVQLVESGGGLVQAGGSLRLSCAASGRIFGRYAMGWYRQAPGKERELVASIRSRGGSTYYADSVKGRFTISRDNAKNTVYLQMNSLKPEDTAVYYCAADGTRSYKGYYWGQGTQVTVSS”: the “polyreactivity (PSR sort gate)” value was “high polyreactivity”.
The value for “QLQLVESGGGLVQAGGSLRLSCAASGLIFTTNAMGWYRQAPGKEREFVAAISPSGGSTYYADSVKGRFTISRDNAKNTVYLQMKSLKPEDTAVYYCAKRPYVGYDWGQGTQVTVSS” was “high polyreactivity”.
With “QVQLQESGGGMVQAGGSLRLSSAASGYISWADYMGWYRQAPGKERELVAGIGYGSTTYYADSVKGRFTISRDNAKNTAYLQMNSLKPEDTAVYYCAVGCYRDTAYKYWGQGTQVTVSS”, the “polyreactivity (PSR sort gate)” value was “low polyreactivity”.
The result for “QDQLVESGGGLVQAGGSLRLSCAASGSIFVENAMGWYRQAPGKEREFVAAITRSGGSTYYADSVKGRFTISRDNAKNPVYLQMNSMKPEDTAVYYCAARIWDEQPAAGYYWGQGTQVTVSS” reads “low polyreactivity”; that for “QVQLVESGGGLVQAGGSLRLSCADSRFNYSYNAMGSYRKAPGKERELVAAISTSGGRTYYADSVKGRFTISRDNAKNTVYLQMNSLKPEDTAVYYCAALSRNQYDPQSYVYWGQGTQVTGSS”, “high polyreactivity”.
The result for “QVQLVESGGGLVQAGGSLRLSCAASGSTFFYYAMGWYRQAPGKDRELVAAISGGGGDTTYADSVKGRFTISRDNAKNTVYLQMNSLKPEDTAVYYCAAVPGSFGSGIFDYWGQGTQATVSS” reads “low polyreactivity”; that for “QVQLVESGGGLVQAGGSLRISCAASGSIFYRYAMGWYRQAPGKERELVAAIRTRGGTYYADSVKGRFTISRDNAKNTVYLQMNSLKPEDTAVYYCNAVVPGWTAVDYDYWGQGTQVTVSS”, “high polyreactivity”.
For the sequence “QVQLVESGGGLVQAGGSLRLSCAASGGSFYPYAMGWSRQAPGKERELLAAISWSGDITYYADSVKGRFTISRDNANNTVYLQMNSLKPEDTAVYYCAAGRVVDKDPSYFREGDYWGQGTQVTVSS”, the “polyreactivity (PSR sort gate)” value is “low polyreactivity”.
The result for “QVQLVESGGGLVHAGRSLRLSCAPSGSTFSIYDMGWSRQAPGKERELVAAISGSGSRTYYADSVKGRFTISRDNAKNTVYLQMNSLKPEDTALYYCAARGRHRDGFDFNYWGQGTQVTVSS” reads “high polyreactivity”.
On to “QVQIVDSGGGLVQAGGSLRLSCDASGRLISRKAMGWYRQAPGKERELVAAITSGGSTYYADSVKGRFTISRDNAKNTVYLQMNSLKPEDTAVYYCAAVYRGVDSRWYCYDYWGQGTQVTVSS”, for which the “polyreactivity (PSR sort gate)” value is recorded as “low polyreactivity”.
